Legend:
[1] = tested on: soluble Aβ42; assay: Soluble Aβ42 in plasma after acute i.v. treatment (Example 23); type: in vivo, APPSWE-transgenic mice
Protocol: The objective with this study was to evaluate the time and dose-response effect of Fc-Nep in plasma of female APPSWE-tg mice after acute intraveneous treatment. The specific purpose is to find an effect on plasma Aβ40 and Aβ42. The γ-secretase inhibitor M-550426 is included as a reference compound.
25-31 weeks old female APPSWE-transgenic mice (10 mice/group) received vehicle or the Fc-Nep at 1 or 5 mg/kg as a single intravenous injections. As a reference compound, 300 μmol/kg of the γ-secretase inhibitor M-550426 was used and these animals was treated in 3 hours (4 mice). […] Blood was sampled from vehicle- and compound-treated animals at 1.5 and 3 hours after dose. Blood was withdrawn from anaesthetized mice by heart puncture into pre-chilled microtainer tubes containing EDTA. Blood samples were immediately put on ice prior to centrifugation. Plasma was prepared by centrifugation for 10 minutes at approximately 3000×g at +4° C. within 20 minutes from sampling. After blood sampling, mice were terminated. Aβ40 and Aβ42 levels in plasma were analyzed by commercial ELISA kit obtained from Biosource and Innogenetics, respectively.

[2] = Pharmacokinetics of Fc-Nep and commercial neprilysin, single i.v. dose (Example 20); type: in vivo; conditions: mice, single i.v. dose 1 alternatively 5 mg/kg
Protocol: The Fc-Nep fusion protein was developed to improve the pharmacokinetic entities of neprilysin with the specific aims to reduce clearance and improve half-life. To test this we have administrated a single i.v. dose of either 1 mg/kg commercial neprilysin or 1 alternatively 5 mg/kg in-house produced Fc-Nep to mice. At set times after dosing blood samples were drawn from the tail vein or by heart puncture at termination. Upon sampling into tubes containing EDTA the aliquots were put on ice. Plasma was prepared by centrifugation within 15 minutes of sampling (typically 1500 g at 4° C. for 10 min) and immediately frozen. Plasma concentrations of Fc-Nep and neprilysin were determined via immunoassays using either anti-Nep for commercial neprilysin or anti-human IgG for Fc-Nep as capture antibodies while both substances were detected via an anti-Nep antibody. Pharmacokinetic parameters are calculated using a software package (WinNonlin, Pharsight Corporation, USA) and in this example experiment the calculated half-life had increased from about 5 minutes for Nep to about 20 hours for Fc-Nep.

[3] = tested on: amyloid β 1-40; assay: Degradation of Aβ 1-40 in human plasma pool (Example 28); type: biochemical; conditions: room temperature, 1 hour
Protocol: (§1) Blood from twelve individuals (6 females and 6 males) were collected into pre-chilled heparin-plasma tubes at the healthcare centre (AstraZeneca) at three different time points. Plasma was prepared by centrifugation at 2500×g for 20 min at 4° C. Plasma samples were collected and transferred to pre-chilled polypropylene tubes and immediately frozen and stored at −70° C. prior to use. Plasma was thawed and pooled from 12 individuals just before the experiment. Aβ 1-40 and 1-42 in plasma pool was degraded by human Fc-Nep or mouse Fc-Nep with corresponding vehicles (50 mM Tris-HCl, 150 mM NaCl pH 7.5). The following final concentrations of the Fc-Nep constructs were used, 100, 32, 10, 3.2, 1, 0.3, 0.1 and […] and the degradation occurred at room temperature for 1 hour while shaking on an orbital shaker. The enzymatic reaction was stopped by adding Phosphoramidone (10 μM final concentration). Concentration of amyloid β 1-40 in human plasma pool was measured using ELISA kit (Biosource; KHB3481) according to the manufacturers instructions.

[4] = tested on: amyloid β 1-40; assay: Degradation of Aβ 1-40 in APPswe-tg mouse plasma pool (Example 28); type: biochemical; conditions: room temperature, 1 hour
Protocol: Mouse plasma collected from 9 animals was stored at −70° C. Plasma was thawed and pooled just before the experiment. Aβ 1-40 and 1-42 in plasma pool was degraded by human Fc-Nep or mouse Fc-Nep with corresponding vehicles (50 mM Tris-HCl, 150 mM NaCl pH 7.5). […] The enzymatic reaction was stopped by adding Phosphoramidone (10 μM final concentration).
After degradation, before concentration of amyloid β 1-40 in tg-mouse plasma pool was measured using ELISA kit (Biosource; KHB3481), the plasma samples were diluted 20 times in standard diluent buffer, according to manufacturers instructions.

[5] = tested on: mouse Aβ40; assay: Mouse Aβ40 in plasma, time and dose response 1.5 and 3 hours (Example 24); type: in vivo, C57BL/6 mice
Protocol: The objective with this study was to evaluate the time and dose-response effect of hFc-Nep in plasma of female C57BL/6 mice after an acute treatment. The specific purpose is to find an effect on plasma Aβ40 and to correlate effect to exposure level of hFc-Nep in plasma. The γ-secretase inhibitor M-550426 is included as a positive control.
13 weeks old female C57BL/6 mice (10 mice/group) received vehicle or hFc-Nep at 1 or 5 mg/kg as a single intravenous injection. M-550426 was administrated per orally at 300 μmol/kg 3 hours before termination. A blank group was also included in the study.
Blood was sampled from vehicle- and compound-treated animals at 1.5 and 3 hours after dose. Blood was withdrawn from anaesthetized mice by heart puncture into pre-chilled microtainer tubes containing EDTA. Blood samples were immediately put on ice prior to centrifugation. Plasma was prepared by centrifugation for 10 minutes at approximately 3000×g at +4° C. within 20 minutes from sampling. After blood sampling, mice were terminated. […] Mouse Aβ40 levels in plasma were analysed by commercial ELISA kit obtained from Biosource. The concentrations of Fc-Nep in plasma and in the formulations were assayed according to the procedures described in Example 27.

[6] = Plasma exposure (Example 25); type: in vivo, C57BL/6 mice; conditions: for Mean plasma exposure: 5 mg/kg i.v.
Protocol: (§2) 20-21 weeks old female C57BL/6 mice (8 mice/group) received vehicle or hFc-Nep at 5 mg/kg as a single intravenous injection and Aβ40 was analysed at different time points after injection (between 1.5-168 hours, i.e., up to 1 week). The γ-secretase inhibitor M-550426 was given per orally and the animals were treated for 3 hours. A blank group was also included in the study. […] Blood collection, plasma processing and measurement of mouse Aβ40 levels in plasma were basically as described in Example 27.

[7] = Observations of animal health (Example 25); type: in vivo, C57BL/6 mice; conditions: 5 mg/kg single i.v., up to 168 hours
Protocol: as §2

[8] = tested on: Aβ 1-42; assay: Degradation of Aβ 1-42 in human plasma pool (Example 28); type: biochemical; conditions: room temperature, 1 hour
Protocol: as §1
A final concentration of 4.7 mM EDTA was added to the tubes before the concentration of Aβ42 was analyzed using ELISA kit Innotest® β-Amyloid1-42 (Innogenetics, lot#177462, ref#80177) according to the manufacturers instructions.

[9] = highest concentration 100 μg/ml

B1: Fc-Neprilysin: extracellular domain of human Neprilysin fused to the human IgG2 Fc domain (including hinge), Fc at N-terminus; SEQ ID NO 11 (protein)
chain: ERKCCVECPPCPAPPVAGPSVFLFPPKPKDTLMISRTPEVTCVVVDVSHEDPEVQFNWYVDGVEVHNAKTKPREEQFNSTFRVVSVLTVVHQDWLNGKEYKCKVSNKGLPAPIEKTISKTKGQPREPQVYTLPPSREEMTKNQVSLTCLVKGFYPSDIAVEWESNGQPENNYKTTPPMLDSDGSFFLYSKLTVDKSRWQQGNVFSCSVMHEALHNHYTQKSLSLSPGKYDDGICKSSDCIKSAARLIQNMDATTEPCTDFFKYACGGWLKRNVIPETSSRYGNFDILRDELEVVLKDVLQEPKTEDIVAVQKAKALYRSCINESAIDSRGGEPLLKLLPDIYGWPVATENWEQKYGASWTAEKAIAQLNSKYGKKVLINLFVGTDDKNSVNHVIHIDQPRLGLPSRDYYECTGIYKEACTAYVDFMISVARLIRQEERLPIDENQLALEMNKVMELEKEIANATAKPEDRNDPMLLYNKMTLAQIQNNFSLEINGKPFSWLNFTNEIMSTVNISITNEEDVVVYAPEYLTKLKPILTKYSARDLQNLMSWRFIMDLVSSLSRTYKESRNAFRKALYGTTSETATWRRCANYVNGNMENAVGRLYVEAAFAGESKHVVEDLIAQIREVFIQTLDDLTWMDAETKKRAEEKALAIKERIGYPDDIVSNDNKLNNEYLELNYKEDEYFENIIQNLKFSQSKQLKKLREKVDKDEWISGAAVVNAFYSSGRNQIVFPAGILQPPFFSAQQSNSLNYGGIGMVIGHEITHGFDDNGRNFNKDGDLVDWWTQQSASNFKEQSQCMVYQYGNFSWDLAGGQHLNGINTLGENIADNGGLGQAYRAYQNYIKKNGEEKLLPGLDLNHKQLFFLNFAQVWCGTYRPEYAVNSIKTDVHSPGNFRIIGTLQNSAEFSEAFHCRKNSYMNPEKKCRVW
Change in plasma Aβ42 ([1]; 1 mg/kg i.v., 1.5 hours): No significant change | Reduction of Aβ42 in plasma compared to vehicle ([1]; 5 mg/kg i.v., 1.5 hours, P<0.05): approximately 20% | Change in plasma Aβ42 ([1]; any of the doses (1 and 5 mg/kg), 3 hours): No significant changes | calculated half-life [2]: about 20 hours | Degradation of amyloid β 1-40 compared to plasma without treatment [3, 9]: 66% | EC50 [3]: 580 nM | Degradation of amyloid β 1-40 compared to plasma without treatment [4, 9]: 71% | EC50 [4]: 470 nM | Reduction of mouse Aβ40 in plasma compared to vehicle ([5]; 1 mg/kg i.v., 1.5 hours, p=0.1638): 17% | Reduction of mouse Aβ40 in plasma compared to vehicle ([5]; 1 mg/kg i.v., 3 hours, p<0.005): 36% | Reduction of mouse Aβ40 in plasma compared to vehicle ([5]; 5 mg/kg i.v., 1.5 hours, p<0.0001): 76% | Reduction of mouse Aβ40 in plasma compared to vehicle ([5]; 5 mg/kg i.v., 3 hours, p<0.0001): 72% | Mean plasma exposure ([6]; 1 week (168 hours)): 38 µg/mL | Mean plasma exposure ([6]; 1.5 hours): 87 µg/mL | half-life in mice ([6]; 5 mg/kg single i.v.): considerably long | Observations of the animal health [7]: no overt adverse effects | Degradation of Aβ 1-42 compared to plasma without treatment [8, 9]: 28% | EC50 [8]: 250 nM

Source: patent US20080242590A1, “New Method 706” (ASTRAZENECA AB, priority 2007, published 2008)
